{"source": "patent US20250346679A1", "about": "(INVOX PHARMA, published 2025)", "binders": {"B1": {"name": "FS22-172-003-AA/E12v2 (bispecific antibody, human IgG1, kappa, L234A L235A)", "heavy": "EVQLVQSGAEVKRPGASVKVSCKASGYPFTSYGISWVRQAPGQGLEWMGWISAYSGGTNYAQKLQGRVTMTTDTSTSTAYMELRSLRSDDTAVYYCARDLFPTIFGVSYYYYWGQGTLVTVSSASTKGPSVFPLAPSSKSTSGGTAALGCLVKDYFPEPVTVSWNSGALTSGVHTFPAVLQSSGLYSLSSVVTVPSSSLGTQTYICNVNHKPSNTKVDKKVEPKSCDKTHTCPPCPAPEAAGGPSVFLFPPKPKDTLMISRTPEVTCVVVDVSHEDPEVKFNWYVDGVEVHNAKTKPREEQYNSTYRVVSVLTVLHQDWLNGKEYKCKVSNKALPAPIEKTISKAKGQPREPQVYTLPPSRDELPYIIPPYNQVSLTCLVKGFYPSDIAVEWESNGQPENNYKTTPPVLDSDGSFFLYSKLTVGADRWLEGNVFSCSVMHEALHNHYTQKSLSLSPG", "light": "DIQMTQSPSTLSASVRDRVIITCRASQSIGNRLAWYQHKPGKAPKLLIYEASTSETGVPSRFSGSGSGTDFTLTISSLQPEDFATYYCQQSYSTPYTFGQGTKLEIKRTVAAPSVFIFPPSDEQLKSGTASVVCLLNNFYPREAKVQWKVDNALQSGNSQESVTEQDSKDSTYSLSSTLTLSKADYEKHKVYACEVTHQGLSSPVTKSFNRGEC", "notes": "PD-L1 site in the Fab, CD137 site in the CH3, LALA; also called anti-human CD137/PD-L1 mAb^2"}}, "key": {"[1]": {"target": "T1, human CD137, cell-surface (human, UniProt Q07011 24-255)", "experiment": "cell-based or functional assay"}, "[2]": {"target": "T2, cynomolgus CD137, cell-surface (cynomolgus, UniProt Q07011 24-255 (human entry))", "T2 construct": "also called DO11.10.cCD137; CD137 on cynomolgus T cells", "T2 chain": "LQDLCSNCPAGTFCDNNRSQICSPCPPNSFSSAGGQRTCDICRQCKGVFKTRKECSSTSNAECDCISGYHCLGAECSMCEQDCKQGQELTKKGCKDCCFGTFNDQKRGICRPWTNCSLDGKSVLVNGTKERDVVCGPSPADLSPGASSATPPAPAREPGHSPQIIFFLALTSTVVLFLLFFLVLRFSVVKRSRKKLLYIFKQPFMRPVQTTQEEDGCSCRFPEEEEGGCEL", "experiment": "flow cytometry on DO11.10.cCD137", "protocol": "Non-specific binding was also assessed by testing binding to DO11.10 cells lacking CD137 expression.\nBriefly, DO11.10, DO11.10.hCD137 or DO11.10.cCD137 suspensions were prepared in FACS buffer (DPBS containing (Gibco, 14190-094) containing 0.5% BSA (Sigma, A7906)) and seeded at 1×10⁵ cell/well in 100 μl in round bottomed 96-well plates (VWR, 734-1797). […] The washed cells were resuspended in the diluted antibody mixture, incubated at 4° C. for 30 minutes, and then washed once in FACS buffer. […] Dead cells were excluded and the fluorescence in the APC channel (638 nm 660/20) was measured. The geometric mean fluorescence intensity (GMFI) values were plotted vs the log concentration of antibody and the resulting curves were fitted using the log (agonist) vs response equation in GraphPad Prism."}, "[3]": {"target": "T2, cynomolgus CD137, cell-surface", "experiment": "cell-based or functional assay"}, "[4]": {"target": "T1, human CD137, cell-surface", "experiment": "cell-based or functional assay", "remark": "listed apart in the source"}}}
{"binder": "B1", "values": [{"measurement": "EC50 (nM), hIL-2 release, CD8+ T cells, donor 171115A, HEK.hPD-L1 XL", "setting": "[1]", "value": 0.24, "unit": "nM"}, {"measurement": "EC50 (nM), hIL-2 release, CD8+ T cells, donor 171115A, MDA-MB-231 XL", "setting": "[1]", "value": 0.02, "unit": "nM"}, {"measurement": "EC50 (nM), hIL-2 release, CD8+ T cells, donor 171115B, HEK.hPD-L1 XL", "setting": "[1]", "value": 0.31, "unit": "nM"}, {"measurement": "EC50 (nM), hIL-2 release, CD8+ T cells, donor 171115B, MDA-MB-231 XL", "setting": "[1]", "value": 0.02, "unit": "nM"}, {"measurement": "EC50", "setting": "[2]", "value": 7.39, "unit": "nM"}, {"measurement": "EC50, IFN-γ release, cynomolgus PBMC assay", "setting": "[3]", "value": 0.08, "unit": "nM"}, {"measurement": "EC50, IFN-γ release, human PBMC assay", "setting": "[4]", "value": 0.03, "unit": "nM"}]}
